In general, Tm refers to the temperature at which the thermal transition is half complete.

The values below come from the array DNA melting data of Ke et al..

A short description of this data set: melting temperature; melt of duplexes. Particulars: sodium 0.0675 M; strand 1 µM.
Turning to “CGACGTGCCGCATGTGCTG+CAGCACATTATGCACGTCG ((((((((...((((((((+))))))))...))))))))”, the Tm turned out to be 46.4 °C.
The figure for “CGACGTGCAGGATGTGCTG+CAGCACATACCGCACGTCG ((((((((.(.((((((((+)))))))).).))))))))” is 53.7 °C; for “CGACGTGCAGAATGTGCTG+CAGCACATGTAGCACGTCG ((((((((...((((((((+))))))))...))))))))” it is 53.4 °C; for “CGACGTGCGGAATGTGCTG+CAGCACATCATGCACGTCG ((((((((...((((((((+))))))))...))))))))” it is 51.9 °C.
Regarding “CGACGTGCCTGATGTGCTG+CAGCACATAATGCACGTCG ((((((((.(.((((((((+)))))))).).))))))))”, the Tm amounted to 49.9 °C.
The result for “CGACGTGCTTTATGTGCTG+CAGCACATGGCGCACGTCG ((((((((...((((((((+))))))))...))))))))” reads 47.2 °C.
The result for “CGACGTGCGCCATGTGCTG+CAGCACATGTCGCACGTCG (((((((((.(((((((((+))))))))).)))))))))” reads 59.7 °C; that for “CGACGTGCATCATGTGCTG+CAGCACATGTAGCACGTCG ((((((((..(((((((((+)))))))))..))))))))”, 55.3 °C.
“CGACGTGCGCAATGTGCTG+CAGCACATGACGCACGTCG (((((((((..((((((((+))))))))..)))))))))”: the Tm is 54.4 °C.
“CGACGTGCGTAATGTGCTG+CAGCACATTGTGCACGTCG ((((((((..(((((((((+)))))))))..))))))))”: the melting temperature (Tm) turned out to be 52 °C.
The figure for “CGACGTGCCTTATGTGCTG+CAGCACATCGCGCACGTCG ((((((((...((((((((+))))))))...))))))))” is 47.2 °C; for “CGACGTGCGCGATGTGCTG+CAGCACATAATGCACGTCG ((((((((...((((((((+))))))))...))))))))” it is 50 °C; for “CGACGTGCACTATGTGCTG+CAGCACATACTGCACGTCG (((((((((.(((((((((+))))))))).)))))))))” it is 48.8 °C.
Take “CGACGTGCAACATGTGCTG+CAGCACATTCTGCACGTCG (((((((((..((((((((+))))))))..)))))))))”: the Tm came out at 50.1 °C.
The result for “CGACGTGCCTTATGTGCTG+CAGCACATTCAGCACGTCG ((((((((...((((((((+))))))))...))))))))” reads 49 °C; that for “CGACGTGCCTGATGTGCTG+CAGCACATGTGGCACGTCG (((((((((..((((((((+))))))))..)))))))))”, 54.9 °C.
Turning to “CGACGTGCTGAATGTGCTG+CAGCACATAACGCACGTCG ((((((((...((((((((+))))))))...))))))))”, the Tm was determined as 50 °C.
“CGACGTGCATTATGTGCTG+CAGCACATATAGCACGTCG ((((((((..(((((((((+)))))))))..))))))))”: the melting temperature (Tm) came to 52.3 °C.
For the substance “CGACGTGCGTAATGTGCTG+CAGCACATCTTGCACGTCG ((((((((...((((((((+))))))))...))))))))”, the Tm amounted to 49.7 °C.
Consider “CGACGTGCATTATGTGCTG+CAGCACATGTGGCACGTCG ((((((((...((((((((+))))))))...))))))))”, for which the midpoint of thermal melting (Tm) stood at 49.2 °C.
The figure for “CGACGTGCTCGATGTGCTG+CAGCACATTACGCACGTCG ((((((((...((((((((+))))))))...))))))))” is 48.6 °C; for “CGACGTGCTGTATGTGCTG+CAGCACATACCGCACGTCG ((((((((.((((((((((+)))))))))).))))))))” it is 55.2 °C.
Consider “CGACGTGCGTGATGTGCTG+CAGCACATTACGCACGTCG ((((((((((.((((((((+)))))))).))))))))))”, for which the Tm is 60.4 °C.
The result for “CGACGTGCTCGATGTGCTG+CAGCACATCTCGCACGTCG ((((((((..(((((((((+)))))))))..))))))))” reads 53.3 °C; that for “CGACGTGCTTGATGTGCTG+CAGCACATTCGGCACGTCG ((((((((...((((((((+))))))))...))))))))”, 50.1 °C.
The figure for “CGACGTGCTTGATGTGCTG+CAGCACATCCGGCACGTCG ((((((((..(((((((((+)))))))))..))))))))” is 54.6 °C.
The figure for “CGACGTGCGGCATGTGCTG+CAGCACATTTTGCACGTCG ((((((((...((((((((+))))))))...))))))))” is 48.7 °C; for “CGACGTGCTGCATGTGCTG+CAGCACATTTAGCACGTCG (((((((((..((((((((+))))))))..)))))))))” it is 51 °C.
Turning to “CGACGTGCGTCATGTGCTG+CAGCACATGTGGCACGTCG ((((((((..(((((((((+)))))))))..))))))))”, the midpoint of thermal melting (Tm) was 54.8 °C.
The result for “CGACGTGCCTCATGTGCTG+CAGCACATCAAGCACGTCG ((((((((.(.((((((((+)))))))).).))))))))” reads 47.9 °C; that for “CGACGTGCTAGATGTGCTG+CAGCACATGACGCACGTCG ((((((((...((((((((+))))))))...))))))))”, 48.1 °C; that for “CGACGTGCGCAATGTGCTG+CAGCACATAGCGCACGTCG ((((((((((.((((((((+)))))))).))))))))))”, 61.2 °C.
Turning to “CGACGTGCGACATGTGCTG+CAGCACATAGGGCACGTCG ((((((((...((((((((+))))))))...))))))))”, the Tm stood at 50 °C.
The result for “CGACGTGCGTGATGTGCTG+CAGCACATGAAGCACGTCG ((((((((.(.((((((((+)))))))).).))))))))” reads 54 °C; that for “CGACGTGCGAGATGTGCTG+CAGCACATGTTGCACGTCG ((((((((.(.((((((((+)))))))).).))))))))”, 54.3 °C.
The figure for “CGACGTGCGGAATGTGCTG+CAGCACATATGGCACGTCG ((((((((...((((((((+))))))))...))))))))” is 50.8 °C; for “CGACGTGCATAATGTGCTG+CAGCACATCCCGCACGTCG ((((((((...((((((((+))))))))...))))))))” it is 46.9 °C.
The figure for “CGACGTGCTCGATGTGCTG+CAGCACATCCGGCACGTCG ((((((((..(((((((((+)))))))))..))))))))” is 53.7 °C.
Consider “CGACGTGCCCCATGTGCTG+CAGCACATGCAGCACGTCG ((((((((..(((((((((+)))))))))..))))))))”, for which the melting temperature (Tm) was 51.9 °C.
For “CGACGTGCTCGATGTGCTG+CAGCACATGTGGCACGTCG ((((((((...((((((((+))))))))...))))))))”, the Tm is 50.7 °C.
The result for “CGACGTGCAAAATGTGCTG+CAGCACATGTAGCACGTCG ((((((((.(.((((((((+)))))))).).))))))))” reads 53.1 °C; that for “CGACGTGCGACATGTGCTG+CAGCACATATGGCACGTCG ((((((((.(.((((((((+)))))))).).))))))))”, 50.2 °C.
The result for “CGACGTGCTAAATGTGCTG+CAGCACATACTGCACGTCG ((((((((...((((((((+))))))))...))))))))” reads 49.7 °C; that for “CGACGTGCCACATGTGCTG+CAGCACATCAGGCACGTCG (((((((((..((((((((+))))))))..)))))))))”, 53.2 °C; that for “CGACGTGCCTGATGTGCTG+CAGCACATCGAGCACGTCG ((((((((..(((((((((+)))))))))..))))))))”, 55.3 °C.
As for “CGACGTGCAACATGTGCTG+CAGCACATAAGGCACGTCG ((((((((...((((((((+))))))))...))))))))”, the midpoint of thermal melting (Tm) was 47.8 °C.
The result for “CGACGTGCACAATGTGCTG+CAGCACATGGAGCACGTCG ((((((((.(.((((((((+)))))))).).))))))))” reads 52.5 °C; that for “CGACGTGCGCCATGTGCTG+CAGCACATCTGGCACGTCG ((((((((...((((((((+))))))))...))))))))”, 47.4 °C.
The result for “CGACGTGCTCAATGTGCTG+CAGCACATTGGGCACGTCG ((((((((.((((((((((+)))))))))).))))))))” reads 60.1 °C; that for “CGACGTGCCTAATGTGCTG+CAGCACATCCGGCACGTCG (((((((((..((((((((+))))))))..)))))))))”, 52 °C; that for “CGACGTGCTTTATGTGCTG+CAGCACATAGCGCACGTCG ((((((((..(((((((((+)))))))))..))))))))”, 47.9 °C.
The result for “CGACGTGCCAAATGTGCTG+CAGCACATCACGCACGTCG ((((((((...((((((((+))))))))...))))))))” reads 47.3 °C.
Turning to “CGACGTGCGTAATGTGCTG+CAGCACATAAAGCACGTCG ((((((((.(.((((((((+)))))))).).))))))))”, the melting temperature (Tm) came out at 55 °C.
Take “CGACGTGCTCAATGTGCTG+CAGCACATTGAGCACGTCG (((((((((((((((((((+)))))))))))))))))))”: the Tm was determined as 64.2 °C.
The result for “CGACGTGCGACATGTGCTG+CAGCACATACAGCACGTCG ((((((((...((((((((+))))))))...))))))))” reads 53.1 °C; that for “CGACGTGCGCAATGTGCTG+CAGCACATCGCGCACGTCG ((((((((((.((((((((+)))))))).))))))))))”, 60.3 °C.
The figure for “CGACGTGCGCTATGTGCTG+CAGCACATTGCGCACGTCG ((((((((((.((((((((+)))))))).))))))))))” is 61 °C; for “CGACGTGCGACATGTGCTG+CAGCACATTAAGCACGTCG ((((((((...((((((((+))))))))...))))))))” it is 53.3 °C.
For the substance “CGACGTGCTCGATGTGCTG+CAGCACATCGGGCACGTCG ((((((((.((((((((((+)))))))))).))))))))”, the Tm is 62.2 °C.
Consider “CGACGTGCAATATGTGCTG+CAGCACATGTCGCACGTCG ((((((((.(.((((((((+)))))))).).))))))))”, for which the melting temperature (Tm) was found to be 51.5 °C.
With “CGACGTGCTACATGTGCTG+CAGCACATTAGGCACGTCG ((((((((...((((((((+))))))))...))))))))”, the Tm was 50.5 °C.
The result for “CGACGTGCTACATGTGCTG+CAGCACATCAAGCACGTCG (((((((((..((((((((+))))))))..)))))))))” reads 50.6 °C.
The result for “CGACGTGCCACATGTGCTG+CAGCACATCTCGCACGTCG ((((((((.(.((((((((+)))))))).).))))))))” reads 46.8 °C; that for “CGACGTGCGCTATGTGCTG+CAGCACATAGGGCACGTCG ((((((((.((((((((((+)))))))))).))))))))”, 59.6 °C.
The result for “CGACGTGCGCGATGTGCTG+CAGCACATGGGGCACGTCG ((((((((.(.((((((((+)))))))).).))))))))” reads 55.6 °C.
In the case of “CGACGTGCTTAATGTGCTG+CAGCACATCTCGCACGTCG ((((((((...((((((((+))))))))...))))))))”, the midpoint of thermal melting (Tm) amounted to 47.8 °C.
